Measurements taken from PMC5324674, “NBP35 interacts with DRE2 in the maturation of cytosolic iron‐sulphur proteins in Arabidopsis thaliana” (The Plant Journal, 2017).

Target: T1, Purified NBP35 (His‐tagged, from E. coli) (Arabidopsis thaliana, UniProt Q8H1Q2 1-350)
T1 construct: The SPR methods say only 'purified NBP35'; also called wild‐type NBP35; source: E. coli, purified (His-Trap HP column, desalted on PD10)
T1 sequence (looked up): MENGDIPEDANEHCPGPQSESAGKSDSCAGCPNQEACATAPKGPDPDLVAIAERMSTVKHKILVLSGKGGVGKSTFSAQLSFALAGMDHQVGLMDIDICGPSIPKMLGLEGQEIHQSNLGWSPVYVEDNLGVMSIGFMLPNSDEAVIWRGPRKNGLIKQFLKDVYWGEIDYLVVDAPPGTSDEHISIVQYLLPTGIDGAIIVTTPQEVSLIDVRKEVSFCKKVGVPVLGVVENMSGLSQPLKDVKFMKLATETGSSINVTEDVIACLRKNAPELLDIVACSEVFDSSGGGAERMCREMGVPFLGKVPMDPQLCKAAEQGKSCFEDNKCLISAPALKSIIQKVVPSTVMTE
Test: SPR; Biacore T200, Streptavidin chip; Strep-tagged DRE2 captured from E. coli cell extract (about 1700 RU); purified NBP35 0-45 uM injected, multi-cycle; 25°C; 20 mM Tris-HCl pH 8, 0.15 M NaCl, 5% glycerol; equilibrium response, Affinity Fit, 1:1 model
Conditions: one partner purified

B1: Strep‐tagged DRE2 (natural protein)
chain: not shown
notes: DRE2/CIAPIN1, Arabidopsis thaliana, AT5G18400; printed also as 'DRE2-Strep'; also called DRE2‐Strep; source: E. coli cell extract, captured on a Streptavidin sensor chip
  Kd: 3.3 ± 0.9 µM
